These results are taken from paper PMC4715599 (Molecular microbiology, 2015).

The target of this data set is MalFGK2 (Escherichia coli, UniProt P02916+P68183+P68187). It is filed as biochemical.

`OC[C@H]1O[C@H](O[C@H]2[C@H](O)[C@@H](O)C(O)O[C@@H]2CO)[C@H](O)[C@@H](O)[C@@H]1O` (mixture of isomers) [maltose, reference compound]: the “stimulation of MBP-dependent ATPase activity by maltose” value (transporter reconstituted in nanodiscs) is “about 10 fold”.

For the compound “MalFGK2: E. coli maltose ABC transporter complex: MalF, MalG and MalK dimer”, the “ATPase activity in the absence of MBP” value (MalFGK2 in nanodiscs) is “did not exhibit any detectable ATPase activity”. For the same compound, for the setting “in detergent, absence of MBP”, the “basal ATPase activity” value was ~ 122 nmol/min/mg.
